T1: human glucose-dependent insulinotropic peptide (gastric inhibitory polypeptide) receptor (human) (UniProt P48546)
T1 sequence (looked up): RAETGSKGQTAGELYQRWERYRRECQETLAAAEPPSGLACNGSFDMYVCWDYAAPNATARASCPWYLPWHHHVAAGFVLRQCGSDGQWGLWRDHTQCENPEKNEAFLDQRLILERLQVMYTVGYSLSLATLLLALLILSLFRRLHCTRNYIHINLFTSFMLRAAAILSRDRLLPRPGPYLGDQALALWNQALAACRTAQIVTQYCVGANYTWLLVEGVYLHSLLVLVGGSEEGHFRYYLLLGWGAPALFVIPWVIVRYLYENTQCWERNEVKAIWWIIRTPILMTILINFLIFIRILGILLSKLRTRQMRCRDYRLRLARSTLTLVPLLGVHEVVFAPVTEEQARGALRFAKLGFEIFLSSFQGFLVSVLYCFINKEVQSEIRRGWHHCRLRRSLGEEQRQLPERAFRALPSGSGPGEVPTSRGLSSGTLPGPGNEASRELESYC

B1: g803 (peptide)
peptide: HSQGTFTSDYSKYK([γGlu-Palmitoyl])DSRSARDFVEWLVAGG-NH2
modifications: N-terminus assumed
SMILES: CCCCCCCCCCCCCCCC(=O)N[C@@H](CCC(=O)NCCCC[C@H](NC(=O)[C@H](Cc1ccc(O)cc1)NC(=O)[C@H](CCCCN)NC(=O)[C@H](CO)NC(=O)[C@H](Cc1ccc(O)cc1)NC(=O)[C@H](CC(=O)O)NC(=O)[C@H](CO)NC(=O)[C@@H](NC(=O)[C@H](Cc1ccccc1)NC(=O)[C@@H](NC(=O)CNC(=O)[C@H](CCC(N)=O)NC(=O)[C@H](CO)NC(=O)[C@@H](N)Cc1c[nH]cn1)[C@@H](C)O)[C@@H](C)O)C(=O)N[C@@H](CC(=O)O)C(=O)N[C@@H](CO)C(=O)N[C@@H](CCCNC(=N)N)C(=O)N[C@@H](CO)C(=O)N[C@@H](C)C(=O)N[C@@H](CCCNC(=N)N)C(=O)N[C@@H](CC(=O)O)C(=O)N[C@@H](Cc1ccccc1)C(=O)N[C@H](C(=O)N[C@@H](CCC(=O)O)C(=O)N[C@@H](Cc1c[nH]c2ccccc12)C(=O)N[C@@H](CC(C)C)C(=O)N[C@H](C(=O)N[C@@H](C)C(=O)NCC(=O)NCC(N)=O)C(C)C)C(C)C)C(=O)O
B2: g802 (peptide)
peptide: HSQGTFTSDYSEK([γGlu-Palmitoyl])LDSERARDFVAWLVAGG-NH2
modifications: N-terminus assumed
SMILES: CCCCCCCCCCCCCCCC(=O)N[C@@H](CCC(=O)NCCCC[C@H](NC(=O)[C@H](CCC(=O)O)NC(=O)[C@H](CO)NC(=O)[C@H](Cc1ccc(O)cc1)NC(=O)[C@H](CC(=O)O)NC(=O)[C@H](CO)NC(=O)[C@@H](NC(=O)[C@H](Cc1ccccc1)NC(=O)[C@@H](NC(=O)CNC(=O)[C@H](CCC(N)=O)NC(=O)[C@H](CO)NC(=O)[C@@H](N)Cc1c[nH]cn1)[C@@H](C)O)[C@@H](C)O)C(=O)N[C@@H](CC(C)C)C(=O)N[C@@H](CC(=O)O)C(=O)N[C@@H](CO)C(=O)N[C@@H](CCC(=O)O)C(=O)N[C@@H](CCCNC(=N)N)C(=O)N[C@@H](C)C(=O)N[C@@H](CCCNC(=N)N)C(=O)N[C@@H](CC(=O)O)C(=O)N[C@@H](Cc1ccccc1)C(=O)N[C@H](C(=O)N[C@@H](C)C(=O)N[C@@H](Cc1c[nH]c2ccccc12)C(=O)N[C@@H](CC(C)C)C(=O)N[C@H](C(=O)N[C@@H](C)C(=O)NCC(=O)NCC(N)=O)C(C)C)C(C)C)C(=O)O
B3: g729 (peptide)
peptide: HSQGTFTSDYSKK([γGlu-Palmitoyl])LDSERAQDFVQWLVAGG-NH2
modifications: N-terminus assumed
SMILES: CCCCCCCCCCCCCCCC(=O)N[C@@H](CCC(=O)NCCCC[C@H](NC(=O)[C@H](CCCCN)NC(=O)[C@H](CO)NC(=O)[C@H](Cc1ccc(O)cc1)NC(=O)[C@H](CC(=O)O)NC(=O)[C@H](CO)NC(=O)[C@@H](NC(=O)[C@H](Cc1ccccc1)NC(=O)[C@@H](NC(=O)CNC(=O)[C@H](CCC(N)=O)NC(=O)[C@H](CO)NC(=O)[C@@H](N)Cc1c[nH]cn1)[C@@H](C)O)[C@@H](C)O)C(=O)N[C@@H](CC(C)C)C(=O)N[C@@H](CC(=O)O)C(=O)N[C@@H](CO)C(=O)N[C@@H](CCC(=O)O)C(=O)N[C@@H](CCCNC(=N)N)C(=O)N[C@@H](C)C(=O)N[C@@H](CCC(N)=O)C(=O)N[C@@H](CC(=O)O)C(=O)N[C@@H](Cc1ccccc1)C(=O)N[C@H](C(=O)N[C@@H](CCC(N)=O)C(=O)N[C@@H](Cc1c[nH]c2ccccc12)C(=O)N[C@@H](CC(C)C)C(=O)N[C@H](C(=O)N[C@@H](C)C(=O)NCC(=O)NCC(N)=O)C(C)C)C(C)C)C(=O)O
B4: g733 (peptide)
peptide: HGEGTFTSDYSKYK([γGlu-Palmitoyl])DSRRAQDFVQWLVAGG-NH2
modifications: N-terminus assumed
SMILES: CCCCCCCCCCCCCCCC(=O)N[C@@H](CCC(=O)NCCCC[C@H](NC(=O)[C@H](Cc1ccc(O)cc1)NC(=O)[C@H](CCCCN)NC(=O)[C@H](CO)NC(=O)[C@H](Cc1ccc(O)cc1)NC(=O)[C@H](CC(=O)O)NC(=O)[C@H](CO)NC(=O)[C@@H](NC(=O)[C@H](Cc1ccccc1)NC(=O)[C@@H](NC(=O)CNC(=O)[C@H](CCC(=O)O)NC(=O)CNC(=O)[C@@H](N)Cc1c[nH]cn1)[C@@H](C)O)[C@@H](C)O)C(=O)N[C@@H](CC(=O)O)C(=O)N[C@@H](CO)C(=O)N[C@@H](CCCNC(=N)N)C(=O)N[C@@H](CCCNC(=N)N)C(=O)N[C@@H](C)C(=O)N[C@@H](CCC(N)=O)C(=O)N[C@@H](CC(=O)O)C(=O)N[C@@H](Cc1ccccc1)C(=O)N[C@H](C(=O)N[C@@H](CCC(N)=O)C(=O)N[C@@H](Cc1c[nH]c2ccccc12)C(=O)N[C@@H](CC(C)C)C(=O)N[C@H](C(=O)N[C@@H](C)C(=O)NCC(=O)NCC(N)=O)C(C)C)C(C)C)C(=O)O
B5: g820 (peptide)
peptide: HSQGTFTSDYSRK([γGlu-Palmitoyl])LDSERARDFVAWLVAGG-NH2
modifications: N-terminus assumed
SMILES: CCCCCCCCCCCCCCCC(=O)N[C@@H](CCC(=O)NCCCC[C@H](NC(=O)[C@H](CCCNC(=N)N)NC(=O)[C@H](CO)NC(=O)[C@H](Cc1ccc(O)cc1)NC(=O)[C@H](CC(=O)O)NC(=O)[C@H](CO)NC(=O)[C@@H](NC(=O)[C@H](Cc1ccccc1)NC(=O)[C@@H](NC(=O)CNC(=O)[C@H](CCC(N)=O)NC(=O)[C@H](CO)NC(=O)[C@@H](N)Cc1c[nH]cn1)[C@@H](C)O)[C@@H](C)O)C(=O)N[C@@H](CC(C)C)C(=O)N[C@@H](CC(=O)O)C(=O)N[C@@H](CO)C(=O)N[C@@H](CCC(=O)O)C(=O)N[C@@H](CCCNC(=N)N)C(=O)N[C@@H](C)C(=O)N[C@@H](CCCNC(=N)N)C(=O)N[C@@H](CC(=O)O)C(=O)N[C@@H](Cc1ccccc1)C(=O)N[C@H](C(=O)N[C@@H](C)C(=O)N[C@@H](Cc1c[nH]c2ccccc12)C(=O)N[C@@H](CC(C)C)C(=O)N[C@H](C(=O)N[C@@H](C)C(=O)NCC(=O)NCC(N)=O)C(C)C)C(C)C)C(=O)O
B6: g728 (peptide)
peptide: HSQGTFTSDYSK([γGlu-Palmitoyl])YLDSERARDFVAWLVAGG-NH2
modifications: N-terminus assumed
SMILES: CCCCCCCCCCCCCCCC(=O)N[C@@H](CCC(=O)NCCCC[C@H](NC(=O)[C@H](CO)NC(=O)[C@H](Cc1ccc(O)cc1)NC(=O)[C@H](CC(=O)O)NC(=O)[C@H](CO)NC(=O)[C@@H](NC(=O)[C@H](Cc1ccccc1)NC(=O)[C@@H](NC(=O)CNC(=O)[C@H](CCC(N)=O)NC(=O)[C@H](CO)NC(=O)[C@@H](N)Cc1c[nH]cn1)[C@@H](C)O)[C@@H](C)O)C(=O)N[C@@H](Cc1ccc(O)cc1)C(=O)N[C@@H](CC(C)C)C(=O)N[C@@H](CC(=O)O)C(=O)N[C@@H](CO)C(=O)N[C@@H](CCC(=O)O)C(=O)N[C@@H](CCCNC(=N)N)C(=O)N[C@@H](C)C(=O)N[C@@H](CCCNC(=N)N)C(=O)N[C@@H](CC(=O)O)C(=O)N[C@@H](Cc1ccccc1)C(=O)N[C@H](C(=O)N[C@@H](C)C(=O)N[C@@H](Cc1c[nH]c2ccccc12)C(=O)N[C@@H](CC(C)C)C(=O)N[C@H](C(=O)N[C@@H](C)C(=O)NCC(=O)NCC(N)=O)C(C)C)C(C)C)C(=O)O
B7: g842 (peptide)
peptide: HSQGTFTSDYSRK([γGlu-Palmitoyl])LDSERARDFVAWLVAGG-OH
modifications: N-terminus assumed
SMILES: CCCCCCCCCCCCCCCC(=O)N[C@@H](CCC(=O)NCCCC[C@H](NC(=O)[C@H](CCCNC(=N)N)NC(=O)[C@H](CO)NC(=O)[C@H](Cc1ccc(O)cc1)NC(=O)[C@H](CC(=O)O)NC(=O)[C@H](CO)NC(=O)[C@@H](NC(=O)[C@H](Cc1ccccc1)NC(=O)[C@@H](NC(=O)CNC(=O)[C@H](CCC(N)=O)NC(=O)[C@H](CO)NC(=O)[C@@H](N)Cc1c[nH]cn1)[C@@H](C)O)[C@@H](C)O)C(=O)N[C@@H](CC(C)C)C(=O)N[C@@H](CC(=O)O)C(=O)N[C@@H](CO)C(=O)N[C@@H](CCC(=O)O)C(=O)N[C@@H](CCCNC(=N)N)C(=O)N[C@@H](C)C(=O)N[C@@H](CCCNC(=N)N)C(=O)N[C@@H](CC(=O)O)C(=O)N[C@@H](Cc1ccccc1)C(=O)N[C@H](C(=O)N[C@@H](C)C(=O)N[C@@H](Cc1c[nH]c2ccccc12)C(=O)N[C@@H](CC(C)C)C(=O)N[C@H](C(=O)N[C@@H](C)C(=O)NCC(=O)NCC(=O)O)C(C)C)C(C)C)C(=O)O

Numbered stars: 1 amine (or outer) side, 2 acyl side, 3 side chain; on linkers, the order of the positions; unused ones are H or OH. Side chains are listed from the residue outwards. Ends that are not written are not given here. * marks the point of attachment. γGlu = O=C(O)[C@H](CCC(=O)[*:2])N[*:1]; Palmitoyl = CCCCCCCCCCCCCCCC(=O)*

human GLP-1 receptor, sequence (P43220 24-463): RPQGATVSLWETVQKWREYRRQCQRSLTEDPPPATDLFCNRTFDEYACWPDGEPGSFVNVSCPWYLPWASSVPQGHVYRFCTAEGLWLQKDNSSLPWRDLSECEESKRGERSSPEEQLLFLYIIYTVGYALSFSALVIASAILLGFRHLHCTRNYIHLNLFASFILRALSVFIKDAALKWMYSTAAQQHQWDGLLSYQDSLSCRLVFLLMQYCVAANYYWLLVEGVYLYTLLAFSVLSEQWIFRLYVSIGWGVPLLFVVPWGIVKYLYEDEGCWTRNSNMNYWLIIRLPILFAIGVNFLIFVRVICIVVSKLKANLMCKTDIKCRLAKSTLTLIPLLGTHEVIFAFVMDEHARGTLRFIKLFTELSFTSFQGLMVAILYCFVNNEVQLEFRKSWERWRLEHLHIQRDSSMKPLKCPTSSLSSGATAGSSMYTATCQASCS
human glucagon receptor, sequence (P47871 26-477): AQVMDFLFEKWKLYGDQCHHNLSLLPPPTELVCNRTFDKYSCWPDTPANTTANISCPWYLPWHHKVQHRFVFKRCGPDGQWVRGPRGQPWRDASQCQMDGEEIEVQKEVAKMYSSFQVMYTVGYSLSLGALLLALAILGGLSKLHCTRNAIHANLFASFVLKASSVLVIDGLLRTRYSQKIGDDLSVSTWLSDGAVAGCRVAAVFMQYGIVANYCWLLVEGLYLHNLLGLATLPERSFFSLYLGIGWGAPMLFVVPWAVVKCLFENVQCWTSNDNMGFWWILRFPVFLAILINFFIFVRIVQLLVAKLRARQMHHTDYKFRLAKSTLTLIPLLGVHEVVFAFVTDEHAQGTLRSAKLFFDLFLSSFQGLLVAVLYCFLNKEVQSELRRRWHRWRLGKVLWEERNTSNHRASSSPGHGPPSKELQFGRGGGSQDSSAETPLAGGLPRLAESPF

One experiment concerns the target human glucagon receptor (human, UniProt P47871 26-477). As to the kind of experiment: cell-based or functional assay.
B1: the cAMP EC50 (assay 1) was 10.8 pM.
Same read-out and setting: under B2 stands 1810 pM; under B3, 31.9 pM.
B4 showed a cAMP EC50 (assay 1) of 62000 pM.
On the same count and under the same terms, to B5 belongs 11.7 pM.
Still for that read-out and setting: to B6 belongs 2440 pM; to B7, 8.31 pM.

The next experiment has as its target human GLP-1 receptor (human, UniProt P43220 24-463). As to the kind of experiment: cell-based or functional assay.
B1 displayed a cAMP EC50 (assay 1) of 29.6 pM.
The same measure, in the same setting: under B2 stands 96.4 pM.
Still for that read-out and setting: to B3 belongs 72.9 pM.
In turn, B4 registered a cAMP EC50 (assay 1) of 23.1 pM.
On the same count and under the same terms, to B5 belongs 33.9 pM.
B6 returned a cAMP EC50 (assay 1) of 169 pM.
Still for that read-out and setting: under B7 stands 51.2 pM.

Another experiment has as its target T1, human glucose-dependent insulinotropic peptide (gastric inhibitory polypeptide) receptor (human). Kind of experiment: cell-based or functional assay.
Take B1: the cAMP EC50 (assay 1) was found to be 32900 pM.
Still for that read-out and setting: to B2 belongs 91200 pM.
On the same count and under the same terms, to B3 belongs 209000 pM.
Molecule B4 registered a cAMP EC50 (assay 1) of 817000 pM.
The same measure, in the same setting: to B5 belongs 71100 pM; to B6, 395000 pM.
The molecule B7 showed a cAMP EC50 (assay 1) of 88300 pM.
